Reference: article PMC11555231, “A cyclic peptide toolkit reveals mechanistic principles of peptidylarginine deiminase IV regulation” (Nature Communications, 2024)

Columns and labels:
[1] = molecular target: T1, N-terminally biotinylated human PADI4 (bio-His-PADI4) (human, UniProt Q9UM07 1-663, G55S (read from the plasmid's DNA at D1:p46, codon AGC)); not stated by the …, biotin on the Avi-Tag (BirA)); assay: SPR; single cycle kinetics, Biacore T200 or S200; Bio-His-PADI4 captured on a Biotin CAPture chip (~2000 RU), peptide as analyte; 25 °C; 50 mM HEPES pH 7.5, 150 mM NaCl, 2 mM DTT, 0.05% Tween-20, 0.1% DMSO, 10 mM Ca2+; 1:1 binding model; settings: both partners purified
T1 construct: human PADI4, residues 1-663, cloned into p28BIOH-LIC; The COLDER assays used His-PADI4 from the same plasmid made without BirA (not biotinylated); also called Bio-hPADI4 wt; Avi-His-PADI4; source: E. coli BL21-DE3 co-expressing biotin ligase (BirA), purified (Ni-NTA, S200 size exclusion); not shown: Avi-Tag, N-terminal, kept; His6, N-terminal, kept

[2] = molecular target: T1, N-terminally biotinylated human PADI4 …; assay: SPR; as a1 with 10 mM Ca2+ and 200 µM Cl-amidine (PADI4 active site covalently blocked with Cl-amidine); settings: both partners purified
[3] = molecular target: T2, N-terminally biotinylated recombinant human PADI4 (bio-His-PADI4) (human, UniProt Q9UM07 1-663, biotin on the N-terminal Avi-Tag (BirA)); assay: SPR; as a1 but 0 mM CaCl2 (calcium-free running buffer); Bio-His-PADI4 captured, peptide as analyte; 25 °C; 1:1 binding model; settings: both partners purified
T2 construct: human peptidylarginine deiminase IV (PADI4), residues 1-663; (vector p28BIOH-LIC, Addgene plasmid 62352); also called Bio-hPADI4 wt; PADI4_WT; source: E. coli BL21-DE3 co-expressing biotin ligase (BirA), purified (Ni-NTA, S200 SEC); not shown: Avi-Tag (biotinylated), N-terminal, kept; His6, N-terminal, kept

[4] = molecular target: T3, bio-His-PADI4 with the active site covalently blocked by Cl-amidine (human, UniProt Q9UM07 1-663, biotin on the N-terminal Avi-Tag (BirA); active site covalently blocked with Cl-amidine (residue not stated)); assay: SPR; as a1 with 10 mM CaCl2 and the PADI4 active site blocked with Cl-amidine; Bio-His-PADI4 captured, peptide as analyte; 25 °C; 1:1 binding model; settings: both partners purified
T3 construct: human peptidylarginine deiminase IV (PADI4), residues 1-663; Same protein as m1; also called 10 mM CaCl2 + Cl-amidine; source: E. coli BL21-DE3 co-expressing biotin ligase (BirA), purified (Ni-NTA, S200 SEC); treated with Cl-amidine; not shown: Avi-Tag (biotinylated), N-terminal, kept; His6, N-terminal, kept

[5] = molecular target: T2, N-terminally biotinylated recombinant …; assay: SPR; single cycle kinetics, Biacore T200 or S200; Bio-His-PADI4 captured on a Biotin CAPture chip (~2000 RU), peptide as analyte; 50 mM HEPES pH 7.5, 150 mM NaCl, 2 mM DTT, 0.05% Tween-20, 0.1% DMSO, 10 mM CaCl2; 25 °C; 1:1 binding model; settings: both partners purified
[6] = molecular target: T1, N-terminally biotinylated human PADI4 …; assay: SPR; single cycle kinetics; Bio-His-PADI4 captured on a Biotin CAPture chip, peptide as analyte; 25 °C; 50 mM HEPES pH 7.5, 150 mM NaCl, 2 mM DTT, 0.05% Tween-20, 0.1% DMSO; CaCl2 concentration not stated for these data; 1:1 binding model; settings: both partners purified
[7] = molecular target: His-tagged recombinant human PADI4 (His-PADI4) (human, UniProt Q9UM07 1-663); assay: cell-based or functional assay
[8] = molecular target: T2, N-terminally biotinylated recombinant …; assay: SPR; single cycle kinetics; biotinylated PADI4 (wild type or single-residue variant) captured on a Biotin CAPture chip, peptide or peptide analogue as analyte; 50 mM HEPES pH 7.5, 150 mM NaCl, 2 mM DTT, 0.05% Tween-20, 0.1% DMSO; 25 °C; CaCl2 concentration not told for these runs; settings: both partners purified

T1 sequence (Q9UM07 whole entry G55S/V82A/G112A, the tested form may be a part): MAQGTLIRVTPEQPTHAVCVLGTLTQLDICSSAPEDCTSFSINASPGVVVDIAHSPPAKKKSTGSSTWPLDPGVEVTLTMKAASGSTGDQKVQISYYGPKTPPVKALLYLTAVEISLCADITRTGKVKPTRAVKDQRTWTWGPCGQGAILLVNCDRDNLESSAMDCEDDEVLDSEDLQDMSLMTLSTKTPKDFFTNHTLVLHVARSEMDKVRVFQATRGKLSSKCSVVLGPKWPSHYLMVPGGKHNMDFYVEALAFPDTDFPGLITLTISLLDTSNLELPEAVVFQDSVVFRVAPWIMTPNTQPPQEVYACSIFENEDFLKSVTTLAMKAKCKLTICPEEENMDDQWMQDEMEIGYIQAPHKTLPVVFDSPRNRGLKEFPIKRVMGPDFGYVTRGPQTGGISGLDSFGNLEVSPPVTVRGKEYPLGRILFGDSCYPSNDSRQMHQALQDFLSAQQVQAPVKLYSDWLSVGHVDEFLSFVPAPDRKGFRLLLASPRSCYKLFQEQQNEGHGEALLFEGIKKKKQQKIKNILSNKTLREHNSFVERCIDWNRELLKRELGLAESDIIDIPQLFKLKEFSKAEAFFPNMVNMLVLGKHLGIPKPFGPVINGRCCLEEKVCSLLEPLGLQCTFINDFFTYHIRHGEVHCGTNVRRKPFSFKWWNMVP
T2 sequence (Q9UM07 whole entry, the tested form may be a part): as the sequence (Q9UM07 whole entry G55S/V82A/G112A, the tested form may be a part) above, with S55G, A82V, A112G counted along it
T3 sequence (Q9UM07 whole entry, the tested form may be a part): as the sequence (Q9UM07 whole entry G55S/V82A/G112A, the tested form may be a part) above, with S55G, A82V, A112G counted along it
His-tagged recombinant human PADI4 (His-PADI4), sequence (Q9UM07 whole entry): as the sequence (Q9UM07 whole entry G55S/V82A/G112A, the tested form may be a part) above, with S55G, A82V, A112G counted along it

| Binder | Kd [3] [nM] | Kd [4] [nM] | Kd [5] [nM] | also measured |
| --- | --- | --- | --- | --- |
| YEPCRFREILDL (not fully specified; acetylated N-terminus (L-tyrosine 1) joined by a thioether bond to the side chain of Cys4 (cyclic); C-terminal amide, cyclic peptide from RaPID selection 3; also called PAD4_12; source: synthetic peptide (Fmoc solid-phase synthesis, HPLC-purified)) [PADI4_12] |  |  |  | Kd [1]: 679 nM; koff [1]: 0.1 s⁻¹; kon [1]: 200000 M⁻¹ s⁻¹; koff [2]: 0.2 s⁻¹; kon [2]: 300000 M⁻¹ s⁻¹ |
| YDRHHYRHPKYCG (not fully specified; D-tyrosine at position 1; acetylated N-terminus joined by a thioether bond to the side chain of Cys12 (cyclic); C-terminal amide) [PADI4_3i] |  |  |  | Kd [6]: > 10000 nM |
| YRDHRSPFDGYCG (not fully specified; D-tyrosine at position 1; cyclised via a thioether bond between the N-terminus (chloroacetylated) and the cysteine side chain (Cys12, from the letters); C-terminal amide) [PADI4_2] |  |  |  | IC50 of inhibition of PADI4 activity (COLDER assay, substrate BAEE, 10 mM CaCl2, 50 nM PADI4) [7]: 209 nM |
| YRDHHYRHPKYCG (citrulline at position 2; else as PADI4_3: D-tyrosine at position 1; thioether cyclisation between the N-terminus and the cysteine side chain; C-terminal amide) [PADI4_3_R2Cit] |  |  |  | Kd [8]: 20 nM; IC50 of inhibition of PADI4 activity (COLDER assay) [7]: 1100 nM |

Second part, led by results:

| Kd [3] [nM] | Kd [4] [nM] | Kd [5] [nM] | Binder | also measured |
| --- | --- | --- | --- | --- |
| 8 | 36 | 39 | YYPKGSWGYKLFCG (not fully specified; D-tyrosine at position 1; cyclised via a thioether bond between the N-terminus (chloroacetylated) and the cysteine side chain (Cys13, from the letters); C-terminal amide, cyclic peptide from RaPID selection 2 (0 mM CaCl2); also called PAD4_7; source: synthetic peptide (Fmoc solid-phase synthesis, HPLC purified)) [PADI4_7] |  |
| > 2000 | > 2000 | > 2000 | YHRLIVVIYVCG (not fully specified; D-tyrosine at position 1; cyclised via a thioether bond between the N-terminus (chloroacetylated) and the cysteine side chain (Cys11, from the letters); C-terminal amide, cyclic peptide from RaPID selection 1 (10 mM CaCl2); source: synthetic peptide (Fmoc solid-phase synthesis, HPLC purified)) [PADI4_4] |  |
| > 2000 | > 2000 | > 2000 | YTLWTVLVVICCG (not fully specified; D-tyrosine at position 1; cyclised via a thioether bond between the N-terminus (chloroacetylated) and the cysteine side chain (the cysteine marked C(S-), Cys11 from the letters); C-terminal amide, cyclic peptide from RaPID selection 2 (0 mM CaCl2); source: synthetic peptide (Fmoc solid-phase synthesis, HPLC purified)) [PADI4_8] |  |
| > 2000 | > 2000 | > 2000 | YATPWLIVVLCG (not fully specified; D-tyrosine at position 1; cyclised via a thioether bond between the N-terminus (chloroacetylated) and the cysteine side chain (Cys11, from the letters); C-terminal amide, cyclic peptide from RaPID selection 1 (10 mM CaCl2); source: synthetic peptide (Fmoc solid-phase synthesis, HPLC purified)) [PADI4_5] |  |
